For test [1], the target named is T1, glycosylated human PAI-1 (active form) (human, UniProt P05121 24-402, glycosylated). Put plainly: cell-based or functional assay.
Test [2] concerns the target T1, glycosylated human PAI-1 (active form). Kind of test: cell-based or functional assay. The source holds these as a separate data set.
The target of test [3] is T2, human PAI-1 (human, UniProt P05121 24-402). Kind of test: cell-based or functional assay.
The target of test [4] is T3, cynomolgus PAI-1 (cynomolgus monkey (Macaca fascicularis), UniProt P05121 24-402 (human entry)). Kind of test: cell-based or functional assay.
T3 sequence (P05121 other isoform, or with tags, fused parts or gaps limits assumed): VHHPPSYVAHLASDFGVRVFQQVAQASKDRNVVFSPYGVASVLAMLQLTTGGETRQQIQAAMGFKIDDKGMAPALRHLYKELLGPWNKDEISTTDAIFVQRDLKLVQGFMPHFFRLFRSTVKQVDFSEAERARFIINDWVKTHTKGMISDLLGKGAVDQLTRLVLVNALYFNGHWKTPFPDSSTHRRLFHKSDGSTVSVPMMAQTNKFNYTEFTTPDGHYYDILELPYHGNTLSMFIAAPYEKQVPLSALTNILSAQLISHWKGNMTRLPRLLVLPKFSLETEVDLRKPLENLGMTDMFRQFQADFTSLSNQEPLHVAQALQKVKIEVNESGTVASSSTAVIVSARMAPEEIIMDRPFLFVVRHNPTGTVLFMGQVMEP
Test [5] concerns the target T2, human PAI-1. Put plainly: cell-based or functional assay. This is another data set of the same source.
The target in test [6] is T1, glycosylated human PAI-1 (active form). Kind of test: cell-based or functional assay. This is another data set of the same source.
Test [7] deals with T4, human PAI-1 captured on immobilized human vitronectin (human, UniProt P04004 20-478).
T4 construct: non-covalent complex formed on the chip or plate; also called PAI-1/Vn complex; Vn captured hPAI-1
T4 sequence (chain, as listed by the source limits assumed, chain 1 of 2): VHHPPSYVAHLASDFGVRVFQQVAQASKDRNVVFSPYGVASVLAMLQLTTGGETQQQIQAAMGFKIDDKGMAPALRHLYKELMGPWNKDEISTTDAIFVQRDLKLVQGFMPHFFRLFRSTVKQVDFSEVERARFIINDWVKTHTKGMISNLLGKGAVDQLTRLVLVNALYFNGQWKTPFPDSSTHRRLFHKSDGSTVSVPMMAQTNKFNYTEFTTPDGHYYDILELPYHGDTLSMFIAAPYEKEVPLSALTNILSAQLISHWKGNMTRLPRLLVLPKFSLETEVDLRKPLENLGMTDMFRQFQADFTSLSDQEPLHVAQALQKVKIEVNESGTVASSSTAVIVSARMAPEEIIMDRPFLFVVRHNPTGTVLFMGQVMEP
T4 sequence (P04004 20-478 limits assumed, chain 2 of 2): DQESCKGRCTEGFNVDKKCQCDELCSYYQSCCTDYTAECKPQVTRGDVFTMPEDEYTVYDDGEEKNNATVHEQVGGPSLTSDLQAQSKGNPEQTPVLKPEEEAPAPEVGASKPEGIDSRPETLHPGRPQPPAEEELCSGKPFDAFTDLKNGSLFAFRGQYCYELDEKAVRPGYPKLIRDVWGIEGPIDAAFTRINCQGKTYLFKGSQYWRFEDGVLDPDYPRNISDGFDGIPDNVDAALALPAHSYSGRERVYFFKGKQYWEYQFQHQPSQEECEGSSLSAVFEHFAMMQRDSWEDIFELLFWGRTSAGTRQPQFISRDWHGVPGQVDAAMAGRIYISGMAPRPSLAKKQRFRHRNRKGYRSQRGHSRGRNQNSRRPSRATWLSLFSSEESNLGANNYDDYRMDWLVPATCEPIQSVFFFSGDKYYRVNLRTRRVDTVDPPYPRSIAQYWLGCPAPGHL
Kind of test: Biacore, hPAI-1 on vitronectin chip, 1:1 model. For orientation: In SPR one partner is held on a chip, and binding of the other changes the refractive index at the surface.

In test [8] the target is T2, human PAI-1. Put plainly: Biacore, mAb on anti-human IgG Fc chip, 1:1 model.
For test [9], the target named is T5, cyno PAI-1 captured on immobilized human vitronectin (cynomolgus monkey; human, UniProt P04004 20-478, limits assumed).
T5 construct: non-covalent complex formed on the chip; also called cPAI-1/Vn
T5 sequence (chain, as listed by the source limits assumed, chain 1 of 2): as the sequence (P05121 other isoform, or with tags, fused parts or gaps limits assumed) above
T5 sequence (P04004 20-478 limits assumed, chain 2 of 2): as the sequence (P04004 20-478 limits assumed, chain 2 of 2) above
Put plainly: Biacore, cPAI-1 on vitronectin chip, two state reaction model.

In test [10] the target is T3, cynomolgus PAI-1. Kind of test: Biacore, mAb on anti-human IgG Fc chip / cyno PAI-1, 1:1 model.
Test [11] concerns the target T5, cyno PAI-1 captured on immobilized …. Put plainly: Biacore, cPAI-1 on vitronectin chip, two state reaction model (ka1).
Test [12] has the same target. Put plainly: Biacore, cPAI-1 on vitronectin chip, two state reaction model (kd1).
Test [13] addresses T4, human PAI-1 captured on immobilized …. Kind of test: Biacore, hPAI-1 on vitronectin chip, two state reaction model.
Test [14] has the same target. Put plainly: Biacore, hPAI-1 on vitronectin chip, two state reaction model (ka1).
Test [15] shares this target. Kind of test: Biacore, hPAI-1 on vitronectin chip, two state reaction model (kd1).

B1: A44-hv11 (antibody, V domains shown)
VH: QMTLKESGPTLVKPTQTLSLTCSVSGDSMTNGYWNWIRQFPGKALEYMGYITYSGSTYYNPSLKGRITITRDTSKNQYYLTLSSVTTVDTATYYCARWHYGSPYYFDYWGQGTTLTVSS
VL: DIKMTQSPSSLSASVGDRVTITCKASQDINSYLSWLQQKPGKSPKTLIYRAQRSVEGVPSRFSGSGSGQDYSLTISSLQPEDLGIYYCLQYDEFPPTFGGGTKLEIK
notes: humanized A44, HEK293; compared with a human IgG1 isotype control; constant regions as for A44-hv1; also called A44V11; A44v11
In general, Kd refers to the free concentration of one partner at which half of the binding sites on the other are occupied at equilibrium, for simple one-to-one binding. In general, koff refers to the first-order rate constant of dissociation. Broadly, the kon is the rate constant with which the complex forms. Consider B1, for which the “human plasma clot lysis restoration, IC50” value in test [1] was 2 nM. Also, in test [2], the “Plasminogen Activation IC50” value was 2.01 nM and the “Plasminogen Activation Y50%” value turned out to be 85.8%. Besides, in the test with human PAI-1 [3], the “active PAI-1 by uPA-PAI-1 complex ELISA, hPAI-1 Standard, IC50” value was determined as 0.131 nM; the “active PAI-1 by uPA-PAI-1 complex ELISA, hPAI-1 Standard, Y50%” value stood at 50.8%; the “active PAI-1 by uPA-PAI-1 complex ELISA, hPlasma TH1782, IC50” value worked out at 0.0157 nM; the “active PAI-1 by uPA-PAI-1 complex ELISA, hPlasma TH1782, Y50%” value was 37.5%. Further, in the test with cynomolgus PAI-1 [4], the “active PAI-1 by uPA-PAI-1 complex ELISA, Cyno PAI-1, IC50” value amounted to 0.0424 nM and the “active PAI-1 by uPA-PAI-1 complex ELISA, Cyno PAI-1, Y50%” value was determined as 50.8%. In the test with human PAI-1 [5], the “PAI-1 activity in human liver lysate (UK-PAI complex ELISA), IC50, A44-hv11 (1 nM)” value turned out to be 0.0365 nM; the “PAI-1 activity in human liver lysate (UK-PAI complex ELISA), IC50, A44-hv11 (2 nM)” value was 0.0503 nM; the “PAI-1 activity in human liver lysate (UK-PAI complex ELISA), IC50, A44-hv11 (3 nM)” value was 0.0465 nM. Besides, in test [6], the “human plasma clot lysis, IC50” value was 1.38 nM and the “human plasma clot lysis, Imax @ 100 nM” value turned out to be 113%. In [7], this molecule registered a Kd of 0.0156 nM, a koff of 0.000122 s⁻¹ and a kon of 7.66e+06 M⁻¹ s⁻¹. Besides, in the test with human PAI-1 [8], binding was characterised by a dissociation constant (Kd) of 0.0425 nM, the koff is 6.68e-05 s⁻¹ and the kon stood at 1.57e+06 M⁻¹ s⁻¹. The Kd in test [9] turned out to be 0.387 nM. Also, in the test with cynomolgus PAI-1 [10], the Kd amounted to 0.03 nM, the koff is 5.6e-05 s⁻¹ and the kon came out at 1.87e+06 M⁻¹ s⁻¹. In test [11], this molecule yielded a kon of 1.56e+06 M⁻¹ s⁻¹. For the same molecule, in [12], the koff is 0.0006 s⁻¹.

B2: A44-hv13 (antibody, V domains shown)
VH: QMQLQESGPGLVKPSETLSLTCTVSGDSMTNGYWNWIRQPPGKGLEYMGYITYSGSTYYNPSLKSRITISRDTSKNQYSLKLSSVTAADTAVYYCARWHYGSPYYFDYWGQGTLVTVSS
VL: B1 VL
notes: humanized A44, HEK293; constant regions as for A44-hv1; also called LC2 x HC5b; variant 13
As for B2, in test [2], the “Plasminogen Activation IC50” value worked out at 1.82 nM and the “Plasminogen Activation Y50%” value came to 71.1%. In the test with human PAI-1 [3], the “active PAI-1 by uPA-PAI-1 complex ELISA, hPAI-1 Standard, IC50” value was determined as 0.166 nM; the “active PAI-1 by uPA-PAI-1 complex ELISA, hPAI-1 Standard, Y50%” value was 52.8%; the “active PAI-1 by uPA-PAI-1 complex ELISA, hPlasma TH1782, IC50” value stood at 0.0311 nM; the “active PAI-1 by uPA-PAI-1 complex ELISA, hPlasma TH1782, Y50%” value was found to be 61.4%. For the same molecule, in the test with cynomolgus PAI-1 [4], the “active PAI-1 by uPA-PAI-1 complex ELISA, Cyno PAI-1, IC50” value amounted to 0.0281 nM and the “active PAI-1 by uPA-PAI-1 complex ELISA, Cyno PAI-1, Y50%” value was 52.8%. Besides, in the test with human PAI-1 [8], the Kd was 0.0164 nM, the koff was found to be 2.52e-05 s⁻¹ and the kon stood at 1.54e+06 M⁻¹ s⁻¹. The molecule also yielded a Kd in [9] of 0.115 nM. This molecule yielded a Kd in [13] of 0.179 nM. In the test with cynomolgus PAI-1 [10], this molecule returned a Kd of 0.027 nM, a koff of 5.08e-05 s⁻¹ and a kon of 1.89e+06 M⁻¹ s⁻¹. The molecule further yielded a kon in test [11] of 2.12e+06 M⁻¹ s⁻¹. The koff in test [12] amounted to 0.000243 s⁻¹. Besides, in [14], the kon was 2.4e+06 M⁻¹ s⁻¹. The molecule further gave a koff in test [15] of 0.000436 s⁻¹.
